Test results reported in US20200407435A1.
Several values for one entry are separate records, joined by “and”; a condition that tells them apart may be missing. Equal entries are not always repeated.

Target: rhAngiopoietin-2 (R&D systems cat 623-AN/CF) (human) (UniProt O15123)
Assay: cell-based or functional assay

rhAngiopoietin-2 (R&D systems cat 623-AN/CF) (human), sequence (O15123 19-496 limits assumed): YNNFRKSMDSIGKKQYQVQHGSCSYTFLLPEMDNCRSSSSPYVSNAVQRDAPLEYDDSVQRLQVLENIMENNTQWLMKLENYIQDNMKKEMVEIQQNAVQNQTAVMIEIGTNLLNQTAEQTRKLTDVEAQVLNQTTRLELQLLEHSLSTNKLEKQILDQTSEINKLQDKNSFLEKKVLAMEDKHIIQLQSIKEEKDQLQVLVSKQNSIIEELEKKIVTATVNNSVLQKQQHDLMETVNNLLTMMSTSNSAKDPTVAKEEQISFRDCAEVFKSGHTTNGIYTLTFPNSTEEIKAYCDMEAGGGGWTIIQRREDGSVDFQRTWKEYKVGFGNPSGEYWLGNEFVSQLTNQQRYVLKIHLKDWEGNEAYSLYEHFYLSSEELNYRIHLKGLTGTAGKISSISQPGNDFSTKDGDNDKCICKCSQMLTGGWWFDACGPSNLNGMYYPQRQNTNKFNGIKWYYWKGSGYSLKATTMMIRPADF

Tie2 phosphorylation functional assay, EC50: 4.4 nM and 2.2 nM
Substance: Nesvacumab analog (Regeneron) (antibody)
